According to paper PMC6114919:

Legend:
[1] = system: WT p55 (Pol gamma accessory subunit) (human); assay: EMSA; settings: EMSA in triplicate as previously described (ref 22); buffer, salt, pH and temperature not given in the material
[2] = system: R182W p55 (human); assay: EMSA; settings: EMSA in triplicate as previously described (ref 22); buffer, salt, pH and temperature not given in the material
[3] = target: Exonuclease-deficient (Exo-) p140 catalytic subunit of DNA polymerase gamma (POLG) (human) (UniProt P54098); assay: DNA polymerase activity titration (formation of active holoenzyme); holoenzymes preassembled on ice in EDB (50 mM Tris-HCl pH 7.5, 10% glycerol, 1 mM EDTA, 1 mM 2-ME, 100 mM KCl, 0.005% NP-40) with constant 2.5 nM p140 and 0-25 nM p55; activity on poly(rA)•oligo(dT)12-18 at 220 mM NaCl, 37°C, 9 min; apparent Kd from activity against the concentration of p55 dimer
[4] = target: p55 (Homo sapiens) (UniProt Q9UHN1); settings: cited from earlier work

Chain of p55 (Q9UHN1 2-485): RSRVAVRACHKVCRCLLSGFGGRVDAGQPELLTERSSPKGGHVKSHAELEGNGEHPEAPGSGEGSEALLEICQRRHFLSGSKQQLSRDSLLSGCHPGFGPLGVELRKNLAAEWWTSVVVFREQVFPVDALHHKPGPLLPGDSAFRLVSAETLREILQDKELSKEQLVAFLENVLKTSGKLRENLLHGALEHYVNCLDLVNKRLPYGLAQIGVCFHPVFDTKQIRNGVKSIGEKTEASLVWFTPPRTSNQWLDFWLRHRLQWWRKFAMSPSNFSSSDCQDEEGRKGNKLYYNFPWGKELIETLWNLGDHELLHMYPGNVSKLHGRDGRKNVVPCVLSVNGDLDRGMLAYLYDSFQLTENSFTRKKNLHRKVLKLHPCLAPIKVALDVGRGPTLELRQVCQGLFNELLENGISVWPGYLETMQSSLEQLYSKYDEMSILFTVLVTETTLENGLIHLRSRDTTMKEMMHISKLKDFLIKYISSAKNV

47-nucleotide double-stranded DNA oligomer
Kd [1]: 89.6 nM
Kd [2]: 84.2 nM

Wild-type p55 accessory subunit of DNA polymerase gamma (POLG2) (natural protein)
Kd [3]: 0.35 nM

R182W p55 accessory subunit of DNA polymerase gamma (POLG2 Chr17: 62492543G>A) (natural protein)
Kd [3]: 0.11 nM

p55 (from UniProt Q9UHN1)
Kd [4]: < 0.1 nM
